1 substance from paper PMC7323979 can be followed below.

This assay addresses α-synuclein fibrils (preformed seeds) (human) (UniProt P37840).

Chain of bovine γB-crystallin (P02526 whole entry): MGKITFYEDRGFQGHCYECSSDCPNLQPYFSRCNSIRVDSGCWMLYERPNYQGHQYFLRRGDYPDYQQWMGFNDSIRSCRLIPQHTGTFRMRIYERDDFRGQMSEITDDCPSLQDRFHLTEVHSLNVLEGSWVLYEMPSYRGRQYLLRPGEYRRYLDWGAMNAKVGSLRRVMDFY

Substance “bovine γB-crystallin (from UniProt P02526 1-175) (natural protein)” returned a lowest crystallin concentration which efficiently inhibits α-syn fibril formation (ThT, 20 μM α-syn monomer, 1 μM α-syn seeds, pH 5.5, 37°C); the same value is also printed as 4.75 μM monomers of 0.1 mg/ml.
